For orientation: Kd means the constant that tells how readily two partners part at equilibrium. Read a low Kd as a tighter complex. Broadly, the koff is the rate constant with which the complex falls apart. Lower therefore signals a long-lived complex.

Bounds are passed on as bounds.

Assay [1] deals with human interleukin-2 (human) (UniProt P60568). The experiment in a line: sandwich ELISA, hIL-2 captured on coated 5344, biotinylated MAB602 as detector, no competitor (well H11).
Assay [2] has the same target. The experiment in a line: SPR, antibody amine-coupled to GLM chip, hIL-2 as analyte (100 nM, three-fold dilutions). For orientation: In SPR one partner is held on a chip, and binding of the other changes the refractive index at the surface.
In assay [3] the target is murine interleukin-2 (mouse) (UniProt P04351). As to the kind of experiment: SPR, MAB602 amine-coupled to GLM chip, mouse IL-2 as analyte at concentrations >1 nM.
murine interleukin-2 (mouse), sequence (P04351 21-169 limits assumed): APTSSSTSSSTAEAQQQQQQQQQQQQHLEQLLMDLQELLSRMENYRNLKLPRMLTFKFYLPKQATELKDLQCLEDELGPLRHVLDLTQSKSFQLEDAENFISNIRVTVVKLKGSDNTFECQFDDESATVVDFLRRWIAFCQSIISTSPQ

human interleukin-2 (human), sequence (P60568 21-153 limits assumed): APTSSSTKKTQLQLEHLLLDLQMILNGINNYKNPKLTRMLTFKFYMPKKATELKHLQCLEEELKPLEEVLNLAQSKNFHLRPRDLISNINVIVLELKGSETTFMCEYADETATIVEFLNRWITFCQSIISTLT

B1: commercially available anti-human IL-2 monoclonal antibody MAB602 (antibody, from another filing, V domains shown)
VH: EVQLQESGPGLVAPSQSLSITCTVSGFSLTNYDISWIRQPPGKGLEWLGVIWTGGGTNYNSGFMSRLSITKDNSKSQVFLKMNSLQTDDTAIYYCVRQGRTPYWGQGTLVTVSA
VL: DIQVTQSPSSLSVSLGDRVTITCKASKDIYNRLAWYQQKPGNAPRLLISGATSLETGVPSRFSGSGSGKDYTLTITSLQTEDVATYYCQQFWGTPYTFGGGTKLEIKR
In assay [1], B1 registered an absorbance (OD450) of 1.1 OD450. In assay [2], the Kd is 9.7 nM and the koff is 0.000494 s⁻¹. Moreover, in assay [3], the response units (RU) was > 10 RU.

Values taken from patent US20190016796A1.
